# PMC10191176 (Nature immunology, 2022)
# T1: yeast-displayed FGL1^FD E250A/E251A/D252A (human, UniProt Q08830 58-312, E250A | E251A | D252A)
# T1 sequence (looked up): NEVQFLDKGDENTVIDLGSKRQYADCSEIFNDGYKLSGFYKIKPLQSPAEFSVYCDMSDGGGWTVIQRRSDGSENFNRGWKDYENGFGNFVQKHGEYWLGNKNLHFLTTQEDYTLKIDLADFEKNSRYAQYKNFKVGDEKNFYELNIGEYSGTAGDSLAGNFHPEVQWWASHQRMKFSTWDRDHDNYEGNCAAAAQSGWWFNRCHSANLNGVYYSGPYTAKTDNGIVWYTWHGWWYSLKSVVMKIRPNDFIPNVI
# T2: yeast-displayed FGL1^FD Y244A/E245A (human, UniProt Q08830 58-312, Y244A | E245A)
# T2 sequence (looked up): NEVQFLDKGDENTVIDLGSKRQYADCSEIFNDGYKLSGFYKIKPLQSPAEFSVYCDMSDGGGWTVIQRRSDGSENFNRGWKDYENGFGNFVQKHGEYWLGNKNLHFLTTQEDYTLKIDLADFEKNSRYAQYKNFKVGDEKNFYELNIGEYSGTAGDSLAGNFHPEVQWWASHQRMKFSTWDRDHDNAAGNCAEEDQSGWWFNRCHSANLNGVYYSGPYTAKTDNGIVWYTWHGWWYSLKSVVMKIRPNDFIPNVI
# Legend:
# [1] = target: HLA-DR4 (DRA*0101/DRB1*0401) with the linked p24 HIV Gag peptide 164-183 (HLA-DR4^HIV) (human | HIV); assay: SPR
# [2] = target: HLA-DR4 loaded with CLIP peptide (UniProt P04233); assay: SPR
# Sequence of HLA-DR4 loaded with CLIP peptide (P04233 whole entry, looked up, tested part not stated): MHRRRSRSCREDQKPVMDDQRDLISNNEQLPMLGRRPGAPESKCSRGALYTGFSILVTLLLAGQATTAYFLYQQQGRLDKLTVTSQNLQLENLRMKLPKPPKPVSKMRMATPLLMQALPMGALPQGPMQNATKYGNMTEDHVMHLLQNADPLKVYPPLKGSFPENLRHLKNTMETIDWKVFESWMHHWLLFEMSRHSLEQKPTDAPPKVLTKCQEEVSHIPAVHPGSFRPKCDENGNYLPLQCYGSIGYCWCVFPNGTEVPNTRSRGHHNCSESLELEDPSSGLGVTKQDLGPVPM
# [3] = target: T1, yeast-displayed FGL1^FD …; assay: flow cytometry on cells
# [4] = target: T2, yeast-displayed FGL1^FD Y244A/E245A; assay: flow cytometry on cells
# [5] = target: the molecule itself; assay: SEC-MALS
molecule,measurement,setting,value
hLAG3* (human LAG3 extracellular domain with the M171I mutation) (from UniProt P18627 23-450) (domain or fragment),Kd,[1],5.2 µM
same,Kd,[2],2.45 µM
"hLAG3* (human LAG3 extracellular domain with the M171I mutation) (domain or fragment, UniProt P18627 23-450, looked up, biotin on the BAP tag (BirA ligase) in binding experiments) LQPGAEVPVVWAQEGAPAQLPCSPTIPLQDLSLLRRAGVTWQHQPDSGPPAAAPGHPLAPGPHPAAPSSWGPRPRRYTVLSVGPGGLRSGRLPLQPRVQLDERGRQRGDFSLWLRPARRADAGEYRAAVHLRDRALSCRLRLRLGQASITASPPGSLRASDWVILNCSFSRPDRPASVHWFRNRGQGRVPVRESPHHHLAESFLFLPQVSPMDSGPWGCILTYRDGFNVSIMYNLTVLGLEPPTPLTVYAGAGSRVGLPCRLPAGVGTRSFLTAKWTPPGGGPDLLVTGDNGDFTLRLEDVSQAQAGTYTCHIHLQEQQLNATVTLAIITVTPKSFGSPGSLGKLLCEVTPVSGQERFVWSSLDTPSQRSFSGPWLEAQEAQLLSQPWQCQLYQGERLLGAAVYFTELSSPGAQRSGRAPGALPAGHL",reduction of binding relative to wild-type FGL1^FD,[3],80%
same,reduction of binding relative to wild-type FGL1^FD,[4],75%
"murine LAG3 extracellular domain (mLAG3, residues 23-442) (domain or fragment, mouse, UniProt Q61790 23-442, looked up) SGPGKELPVVWAQEGAPVHLPCSLKSPNLDPNFLRRGGVIWQHQPDSGQPTPIPALDLHQGMPSPRQPAPGRYTVLSVAPGGLRSGRQPLHPHVQLEERGLQRGDFSLWLRPALRTDAGEYHATVRLPNRALSCSLRLRVGQASMIASPSGVLKLSDWVLLNCSFSRPDRPVSVHWFQGQNRVPVYNSPRHFLAETFLLLPQVSPLDSGTWGCVLTYRDGFNVSITYNLKVLGLEPVAPLTVYAAEGSRVELPCHLPPGVGTPSLLIAKWTPPGGGPELPVAGKSGNFTLHLEAVGLAQAGTYTCSIHLQGQQLNATVTLAVITVTPKSFGLPGSRGKLLCEVTPASGKERFVWRPLNNLSRSCPGPVLEIQEARLLAERWQCQLYEGQRLLGATVYAAESSSGAHSARRISGDLKGGHL",stoichiometry N,[5],2
